Measurements published in patent US20080090771A1, “ABUSE-RESISTANT H[…], COMPOSITIONS AND METHODS OF USING THE SAME” (SHIRE LLC, priority 2006, published 2008).
No end group written: not given here.

Key:
[1] = Oral bioavailability of hydrocodone conjugates in rats; details: for bioavailability (% HC) oral AUC / bioavailability (% HC) oral Cmax: rats, relative to hydrocodone; for Oral:IN Index AUC: ratio of oral to intranasal AUC (% HC); for Oral:IN Index Cmax: ratio of oral to intranasal Cmax (% HC)
[2] = Intranasal bioavailability of hydrocodone conjugates in rats; details: relative to hydrocodone

Substance	bioavailability (% HC) oral AUC [1]	bioavailability (% HC) oral Cmax [1]	Oral:IN Index AUC [1]	Oral:IN Index Cmax [1]	bioavailability (% HC) IN AUC [2]	bioavailability (% HC) IN Cmax [2]
Asp-Asp-Asp-Asp-Ile-HC (DDDDI-hydrocodone)	79 % HC	110 % HC	2.19	1.72	36 % HC	64 % HC
Pro-Pro-Leu-HC	94 % HC	108 % HC	2.04	2.25	46 % HC	48 % HC
Tyr-Tyr-Phe-Phe-Ile-HC	113 % HC	63 % HC	4.35	1.85	26 % HC	34 % HC
Glu-Glu-Gly-Gly-Ile-Hydrocodone (EEGGI-hydrocodone) [Glu-Glu-Gly-Gly-Ile-HC]	81 % HC	77 % HC			50 % HC	56 % HC
Glu-Glu-Gly-Gly-Phe-HC (EEGGF-hydrocodone)	110 % HC	112 % HC	1.24	1.15	89 % HC	97 % HC
Asp-Asp-Pro-Pro-Ile-HC (DDPPI-hydrocodone)	92 % HC	95 % HC	2.04	1.19	45 % HC	80 % HC
Gly-Gly-Glu-Glu-Ile-HC (GGEEI-hydrocodone)	96 % HC	119 % HC	1.45	1.55	66 % HC	77 % HC
Glu-Glu-Phe-Phe-Phe-Hydrocodone (EEFFF-hydrocodone) [Glu-Glu-Phe-Phe-Phe-HC]	83 % HC	89 % HC	3.07	1.89	27 % HC	47 % HC
Glu-Glu-Phe-Phe-Ile-HC (EEFFI-hydrocodone)	96 % HC	129 % HC	1.41	1.70	68 % HC	76 % HC
Pro-Leu-Ile-HC	141 % HC	172 % HC	1.62	1.70	87 % HC	101 % HC
Leu-Pro-Phe-HC	106 % HC	125 % HC	1.28	1.24	83 % HC	101 % HC
Asp-Asp-Phe-Phe-Ile-HC (DDFFI-hydrocodone)	115 % HC	167 % HC	2.05	2.69	56 % HC	62 % HC
Asp-Asp-Ile-HC	280 % HC	238 % HC	4.75	2.56	59 % HC	93 % HC
Lys-Lys-Pro-Pro-Ile-HC (KKPPI-hydrocodone)	80 % HC	76 % HC	1.18	0.81	68 % HC	94 % HC
Gly-Gly-Pro-Pro-Ile-HC (GGPPI-hydrocodone)	94 % HC	121 % HC	2.14	2.16	44 % HC	56 % HC
Lys-Lys-Asp-Asp-Ile-HC (KKDDI-hydrocodone)	90 % HC	121 % HC	2.31	2.16	39 % HC	56 % HC
Tyr-Tyr-Pro-Pro-Ile-HC (YYPPI-hydrocodone)	218 % HC	213 % HC			10 % HC	10 % HC
Tyr-Tyr-Ile-HC	145 % HC	234 % HC	7.25	6.88	20 % HC	34 % HC
Asp-Asp-Gly-Gly-Ile-HC (DDGGI-hydrocodone)	82 % HC	80 % HC	1.71	1.19	48 % HC	67 % HC
Pro-Ile-Ile-HC	104 % HC	99 % HC	1.21	0.97	86 % HC	102 % HC
Glu-Glu-Ile-HC	83 % HC	112 % HC	1.60	1.90	52 % HC	59 % HC
Lys-Lys-Ile-HC	80 % HC	76 % HC	1.18	0.81	68 % HC	94 % HC
Glu-Glu-Asp-Asp-Ile-HC (EEDDI-hydrocodone)	108 % HC	129 % HC	2.04	1.59	53 % HC	81 % HC
